Experimental data reported in PMC6683420 (BMC Molecular and Cell Biology, 2019).

Tests used:
human CD40 [1] = molecular target: T1, human CD40 (human, UniProt P25942); assay: cell-based or functional assay
human CD40 [2] = molecular target: T1, human CD40; assay: cell-based or functional assay; remark: listed apart in the source

T1 sequence (P25942 21-277): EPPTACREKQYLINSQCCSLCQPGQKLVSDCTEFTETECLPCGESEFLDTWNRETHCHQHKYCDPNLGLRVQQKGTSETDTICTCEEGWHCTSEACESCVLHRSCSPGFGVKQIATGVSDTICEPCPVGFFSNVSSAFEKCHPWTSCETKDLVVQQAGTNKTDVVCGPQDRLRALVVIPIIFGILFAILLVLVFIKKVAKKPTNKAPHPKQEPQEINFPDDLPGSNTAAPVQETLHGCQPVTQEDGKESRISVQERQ

| EC50 of antagonist activity in the CD40-dependent NF-kB SEAP reporter assay (HEK-293 transfected with human CD40, stimulated with recombinant CD40L); blocks m8 with m7 (human CD40 [1]) | EC50 of inhibition of CD86 upregulation on primary human B cells stimulated with CD40L-expressing Jurkat cells; blocks m8 with m7 (human CD40 [1]) | Antagonist: Jurkat/ Reporter assay IC50 nM; blocks m8 with m7 (human CD40 [2]) | Agonist: huCD40 reporter assay IC50 (human CD40 [2]) | Binder |
| --- | --- | --- | --- | --- |
| 3.7 nM | 0.6 nM | 3.1 nM |  | ABBV-323 (ravagalimab), human IgG1/κ anti-CD40 antagonist mAb (antibody, V domains shown) VH: EVQLVESGGGLVKPGGSLRLSCAASGFTFSDYGMNWVRQAPGKGLEWIAYISSGRGNIYYADTVKGRFTISRDNAKNSLYLQMNSLRAEDTAVYYCARSWGYFDVWGQGTTVTVSS VL: DIVMTQSPDSLAVSLGERATINCKSSQSLLNRGNQKNYLTWFQQKPGQPPKLLIYWASTRESGVPDRFSGSGSGTDFTLTISSLQAEDVAVYYCQNDYTYPLTFGQGTKLEIK |
|  |  |  | 157 nM | FAB516, anti-CD40 agonist antibody variant of ABBV-323 (antibody, V domains shown) VH: EVQLVESGGGLVKPGGSLRLSCAASGFTFSDYGMNWVRQAPGKGLEWVSYISSGRSNIYYADTVKGRFTISRDNAKNSLYLQMNSLRAEDTAVYYCARSWGYFDVWGQGTTVTVSS VL: DIVMTQSPDSLAVSLGERATINCKSSQSLLNLGNQKNYLTWFQQKPGQPPKLLIYWASTRESGVPDRFSGSGSGTDFTLTISSLQAEDVAVYYCQNDYTYPLTFGQGTKLEIK |
